Assay results taken from publication PMC4386031.

Molecular target: seven of the nine datasets (monoUb and the diUb types fitted to a one-site binding model)
Experiment: SPR; monoUb and all types of diUb immobilized, NZF1 (or its mutants) binding detected; one-site or two-site binding model; two experiments

Kd: 190 to 370 µM
Substance: TRABID NZF1 (aa 1-33) (from UniProt Q9UGI0 1-33) (domain or fragment)
